One block for each binder: values may come before it.
Legend:
[1] = target: T1, human IL-4Rα (SPR target) (human, UniProt P24394 26-232, limits assumed); experiment: SPR as described in Example 2
T1 construct: also called recombinant human IL-4Rα-Fc
T1 sequence (looked up): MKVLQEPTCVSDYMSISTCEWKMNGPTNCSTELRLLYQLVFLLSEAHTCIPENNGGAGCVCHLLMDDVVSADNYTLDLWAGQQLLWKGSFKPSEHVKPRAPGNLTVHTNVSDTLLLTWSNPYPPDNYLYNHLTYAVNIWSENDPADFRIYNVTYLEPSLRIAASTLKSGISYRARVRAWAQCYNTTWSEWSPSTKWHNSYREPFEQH

[2] = target: T2, human IL-4Rα on the cells of the hIL-4 proliferation assay (human, UniProt P24394 26-825); experiment: cell-based or functional assay
T2 sequence (looked up): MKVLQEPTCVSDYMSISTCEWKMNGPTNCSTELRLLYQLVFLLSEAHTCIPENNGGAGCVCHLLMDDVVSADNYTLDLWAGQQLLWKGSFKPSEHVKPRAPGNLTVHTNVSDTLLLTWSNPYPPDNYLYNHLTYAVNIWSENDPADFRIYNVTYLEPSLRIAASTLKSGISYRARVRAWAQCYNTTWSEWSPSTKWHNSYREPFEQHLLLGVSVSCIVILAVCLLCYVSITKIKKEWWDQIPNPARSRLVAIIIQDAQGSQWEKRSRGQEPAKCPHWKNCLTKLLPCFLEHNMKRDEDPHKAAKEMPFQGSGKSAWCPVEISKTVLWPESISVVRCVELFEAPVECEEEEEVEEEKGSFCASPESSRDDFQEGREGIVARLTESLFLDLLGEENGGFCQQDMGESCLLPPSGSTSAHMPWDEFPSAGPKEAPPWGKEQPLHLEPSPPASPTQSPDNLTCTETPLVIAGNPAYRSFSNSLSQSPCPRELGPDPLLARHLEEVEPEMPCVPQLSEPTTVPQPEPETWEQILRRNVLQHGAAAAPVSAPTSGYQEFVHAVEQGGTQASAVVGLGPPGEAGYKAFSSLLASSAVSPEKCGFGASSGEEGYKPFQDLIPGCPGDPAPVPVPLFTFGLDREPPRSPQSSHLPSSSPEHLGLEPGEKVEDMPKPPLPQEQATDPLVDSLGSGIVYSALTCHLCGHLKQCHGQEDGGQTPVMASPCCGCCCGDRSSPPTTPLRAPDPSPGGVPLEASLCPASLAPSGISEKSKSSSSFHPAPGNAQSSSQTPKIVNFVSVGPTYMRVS

mouse IL-5 [3] = target: T3, mouse IL-5 (mouse, UniProt P04401 21-133); experiment: cell-based or functional assay
T3 sequence (looked up): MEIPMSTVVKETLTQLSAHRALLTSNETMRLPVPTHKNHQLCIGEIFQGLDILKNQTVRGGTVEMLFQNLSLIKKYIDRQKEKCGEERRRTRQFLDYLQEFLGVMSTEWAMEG

mouse IL-5 [4] = target: T3, mouse IL-5; experiment: SPR, mAb (0-20 µg/mL) over immobilised target; immobilized IL-5 target; IL-5 mAb in solution
[5] = target: T4, recombinant mouse IL-4Rα-Fc (mouse, UniProt P16382 26-233); experiment: SPR, IL-4Rα-Fc coated, antibody as 1st injection
T4 construct: Bought reagent; also called coated IL-4Rα; injected IL-4Rα; not shown: Fc part
T4 sequence (looked up): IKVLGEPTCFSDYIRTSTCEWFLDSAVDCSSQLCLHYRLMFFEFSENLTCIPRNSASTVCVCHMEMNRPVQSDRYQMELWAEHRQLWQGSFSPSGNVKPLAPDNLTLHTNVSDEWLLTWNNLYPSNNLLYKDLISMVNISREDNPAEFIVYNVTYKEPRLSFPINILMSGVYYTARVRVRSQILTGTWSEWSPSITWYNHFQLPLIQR
Protocol: (§1) The experiment was also performed in reverse order and confirmed the bispecific nature of the molecule as depicted in FIG. 13B.

mouse IL-5 [6] = target: T3, mouse IL-5; experiment: cell-based or functional assay; remark: listed apart in the source
[7] = target: T5, mouse IL-4Rα (SPR target of Example 2) (mouse, UniProt P16382 26-233, limits assumed); experiment: SPR, mAb (0-20 µg/mL) over immobilised target; immobilized IL-4Rα target; IL-4Rα mAb in solution
T5 construct: also called immobilized target IL-4Rα
T5 sequence (looked up): T4 sequence (looked up)

mouse IL-5 [8] = target: T3, mouse IL-5; experiment: SPR sandwich: IL-4Rα-Fc coated, anti-IL-4Rα Ab as 1st injection, IL-5 as 2nd injection
Protocol: as §1

[9] = target: T6, mouse IL-4Rα on cells (HT-2 cells, purified mouse B cells) (mouse, UniProt P16382 26-810); experiment: cell-based or functional assay
T6 sequence (looked up): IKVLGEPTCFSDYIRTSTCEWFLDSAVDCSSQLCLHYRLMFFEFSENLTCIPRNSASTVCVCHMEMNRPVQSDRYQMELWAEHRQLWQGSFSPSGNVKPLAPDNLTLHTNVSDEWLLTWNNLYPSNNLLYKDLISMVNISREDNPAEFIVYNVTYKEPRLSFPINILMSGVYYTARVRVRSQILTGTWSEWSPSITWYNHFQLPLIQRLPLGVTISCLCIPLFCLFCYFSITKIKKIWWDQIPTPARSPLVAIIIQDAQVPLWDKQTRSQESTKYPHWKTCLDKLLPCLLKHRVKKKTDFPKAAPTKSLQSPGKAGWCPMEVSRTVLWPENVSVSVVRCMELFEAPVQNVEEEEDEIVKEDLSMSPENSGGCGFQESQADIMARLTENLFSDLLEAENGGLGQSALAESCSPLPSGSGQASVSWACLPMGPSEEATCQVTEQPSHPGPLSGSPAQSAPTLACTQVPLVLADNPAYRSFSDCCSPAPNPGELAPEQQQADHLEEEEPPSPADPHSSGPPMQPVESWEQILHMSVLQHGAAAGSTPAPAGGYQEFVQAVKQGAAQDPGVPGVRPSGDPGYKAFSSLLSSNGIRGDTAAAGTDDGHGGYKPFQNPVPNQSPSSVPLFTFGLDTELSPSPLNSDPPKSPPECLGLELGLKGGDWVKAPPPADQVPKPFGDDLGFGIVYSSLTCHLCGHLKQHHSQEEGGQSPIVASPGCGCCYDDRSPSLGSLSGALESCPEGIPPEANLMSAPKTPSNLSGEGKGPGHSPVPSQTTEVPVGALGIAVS

[10] = target: T4, recombinant mouse IL-4Rα-Fc; experiment: SPR sandwich: IL-5 coated, bispecific as 1st injection, IL-4Rα-Fc as 2nd injection
Protocol: as §1

mouse IL-5 [11] = target: T3, mouse IL-5; experiment: SPR, IL-5 coated, antibody as 1st injection
Protocol: as §1

- Kd [1]: 0.0551 nM
- IC50 (nM), proliferation assay with hIL-4 (1.5 ng/mL) [2]: 0.6 nM
B1: h4R3D6 human IL-4Rα mAb (antibody, V domains shown)
VH: QVQLQESGGGLVQPGGSLRLSCAASGFTFSSYSLTWVRQAPGKGLEWVSTIKARGGTTLYADSVKDRFTISRDNAKNTLYLLMNSLKPEDTAVYYCAKPLYNNFAGDFGSWGQGTTVTVSS
VL: DIQMTQSPSSLSASLGDRVTITCQASQSISSYLAWYQQKPGQAPKLLIYGGSRLQTGVPSRFSGSGSGTSFTLTISGLETEDLATYYCLQDYSWPLTFGQGTKVELK
notes: also called 4RMP3D6

- Kd (mouse IL-5 [4]): 2 pM
- EC50 (nM), inhibition of mIL-5-induced (0.25 ng/mL) proliferation of TF-1 cells (mouse IL-5 [3]): 1.75 nM
- binding result [5]: no binding
- EC50, inhibition of mouse IL-5-induced proliferation of TF-1 cells (mouse IL-5 [6]): 0.6 nM
B3: m5MP95G7 IL-5 monospecific antibody (mouse IgG2a) (antibody, V domains shown)
VH: ELQVVESGGGLVQPGGSLRLSCAASGFTFSSYGMSWVRQAPGKGLEWVSTISRGGDSTSYADSVKGRFTISKDNAKNTLYLQMNSLEPEDTAVYYCANLGRLGFGRGQGTQVTVSS
VL: SYELTQPPSVSGSPGKTLTISCAGTSSDIGDWNYVSWFQQLPGTAPKLLISEVNKRASGIPDRFSGSKSGNTASLSISGLQSEDEADYYCTSYRSGNNWVFGGGTHLTVL
notes: also called IL-5 mAb; IL-5 monospecific Ab

- Kd [7]: 0.08 nM
- binding result (mouse IL-5 [8]): no binding
- EC50, inhibition of mouse IL-4-induced proliferation of HT-2 cells [9]: 0.2 nM
B4: m4RMP36B7 IL-4Rα monospecific antibody (mouse IgG2a) (antibody, V domains shown)
VH: EVQLVESGGGLVQPGGSLRVSCAASGFTFSSYYMAWVRQAPGKGLEWVSHIHAGGSLTQYADSVKGRFTISRDNAKSTLYLQMNSLKPEDTALYYCVRIYGDATSYDYWGQGTQVSVSS
VL: HSAVTQPPSVSGSPGKTVTISCAGTSSDIGGYNYVSWYQQFPGTAPKLLIYEVNKRASGIPDRFSGSKSGNTASLSISGLQSEDEADYYCASYRSNNNIVFGGGTHLTVL
notes: also called IL-4Rα mAb; IL-4Rα monospecific Ab

Further lines, the binder ahead of its results:

B2: 95G7hIgG1 (IL-5 antibody 5MP95G7 as human IgG1) (antibody, V domains shown)
VH: B3 VH
VL: B3 VL
- EC50 (nM), inhibition of mIL-5-induced (0.25 ng/mL) proliferation of TF-1 cells (mouse IL-5 [3]): 1.86 nM

B5: IL-4Rα/IL-5 bispecific antibody (knob-into-hole, mouse IgG2a; 4RMP36B7 arm and 5MP95G7 arm) (bispecific antibody, V domains shown)
VH 1: B4 VH
VL 1: B4 VL
VH 2: B3 VH
VL 2: B3 VL
notes: Murine Fc: the 4RMP36B7 heavy chain carries T366S, L368A and Y407V in CH3, the 5MP95G7 heavy chain carries T366W; also called IL-4Rα/IL-5 bispecific Ab; bispecific Ab
- binding result [10]: binds
- binding result (mouse IL-5 [11]): binds

— patent US20200399382A1 (ARGENX, published 2020)
